Experiments:
[1] = molecular target: T1, human FcRn complex (FCGRT and beta-2 microglobulin), recombinant, purified (human, UniProt P55899 24-297; P61769 21-119); assay: ?; pH 6
[2] = molecular target: T1, human FcRn complex (FCGRT and beta-2 …); assay: ?; pH 7.4
[3] = molecular target: T1, human FcRn complex (FCGRT and beta-2 …); assay: -; pH7.4
[4] = molecular target: T1, human FcRn complex (FCGRT and beta-2 …); assay: ?; pH 7.4; remark: listed apart in the source
[5] = molecular target: T1, human FcRn complex (FCGRT and beta-2 …); assay: -; pH6
[6] = molecular target: T1, human FcRn complex (FCGRT and beta-2 …); assay: -; pH6; remark: listed apart in the source
[7] = molecular target: T1, human FcRn complex (FCGRT and beta-2 …); assay: -; pH6; remark: listed apart in the source
[8] = molecular target: T1, human FcRn complex (FCGRT and beta-2 …); assay: -; pH7.4; remark: listed apart in the source
[9] = molecular target: T1, human FcRn complex (FCGRT and beta-2 …); assay: ?; pH 6; remark: listed apart in the source
[10] = molecular target: T1, human FcRn complex (FCGRT and beta-2 …); assay: -; pH7.4; remark: listed apart in the source
[11] = molecular target: T1, human FcRn complex (FCGRT and beta-2 …); assay: ?; pH 7.4; remark: listed apart in the source
[12] = molecular target: T1, human FcRn complex (FCGRT and beta-2 …); assay: ?; pH 6; remark: listed apart in the source
[13] = molecular target: T1, human FcRn complex (FCGRT and beta-2 …); assay: -; pH7.4; remark: listed apart in the source
[14] = molecular target: T1, human FcRn complex (FCGRT and beta-2 …); assay: -; pH6; remark: listed apart in the source

T1 sequence (P55899 24-297, chain 1 of 2): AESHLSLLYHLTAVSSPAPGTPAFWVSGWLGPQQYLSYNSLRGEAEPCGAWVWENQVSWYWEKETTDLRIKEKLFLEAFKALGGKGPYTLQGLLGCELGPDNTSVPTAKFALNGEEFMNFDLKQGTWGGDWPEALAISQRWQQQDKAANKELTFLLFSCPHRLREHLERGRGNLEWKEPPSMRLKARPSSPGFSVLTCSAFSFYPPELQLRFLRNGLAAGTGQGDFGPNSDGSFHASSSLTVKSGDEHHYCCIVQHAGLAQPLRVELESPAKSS
T1 sequence (P61769 21-119, chain 2 of 2): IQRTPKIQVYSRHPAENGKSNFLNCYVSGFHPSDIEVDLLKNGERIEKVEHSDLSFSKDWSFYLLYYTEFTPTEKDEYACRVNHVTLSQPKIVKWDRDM

| Binder | Kd [1] | Kd [2] | Kd [3] | Kd [4] | Kd [5] | Kd [6] | Kd [7] | Kd [8] | Kd [9] | Kd [10] | Kd [11] | Kd [12] | Kd [13] | Kd [14] |
| --- | --- | --- | --- | --- | --- | --- | --- | --- | --- | --- | --- | --- | --- | --- |
| anti-gD antibody comprising a hIgG1 with a YQAY (Q95, M252Y/T307Q/Q311A/N434Y) Fc modification (anti-gD-hIgG1-YQAY) (antibody) Fc: PAPELLGGPSVFLFPPKPKDTLYISRTPEVTCVVVDVSHEDPEVKFNWYVDGVEVHNAKTKPREEQYNSTYRVVSVLQVLHADWLNGKEYKCKVSNKALPAPIEKTISKAKGQPREPQVYTLPPSRDELTKNQVSLTCLVKGFYPSDIAVEWESNGQPENNYKTTPPVLDSDGSFFLYSKLTVDKSRWQQGNVFSCSVMHEALHYHYTQKSLSLSPGK | 2 nM | 333 nM | 333 nM | 333 nM | 2 nM | 2 nM | 2 nM | 333 nM | 2 nM | 333 nM |  |  |  |  |
| anti-BACE1 hIgG1 antibody, Fc modification Q95 (M252Y/T307Q/Q311A/N434Y) (antibody) Fc: PAPELLGGPSVFLFPPKPKDTLYISRTPEVTCVVVDVSHEDPEVKFNWYVDGVEVHNAKTKPREEQYNSTYRVVSVLQVLHADWLNGKEYKCKVSNKALPAPIEKTISKAKGQPREPQVYTLPPSRDELTKNQVSLTCLVKGFYPSDIAVEWESNGQPENNYKTTPPVLDSDGSFFLYSKLTVDKSRWQQGNVFSCSVMHEALHYHYTQKSLSLSPGK |  |  |  |  |  |  |  |  |  |  | 333 nM | 1.98 nM | 333 nM | 2 nM |
